The target in assay [1] is human CCR8 (human) (UniProt P51685). Put plainly: cell-based or functional assay.
Assay [2] shares this target. Put plainly: flow cytometry on mammalian cells expressing human CCR8. In general terms: In flow cytometry, cells or beads pass a laser one at a time.

Sequence of human CCR8 (human) (P51685 whole entry): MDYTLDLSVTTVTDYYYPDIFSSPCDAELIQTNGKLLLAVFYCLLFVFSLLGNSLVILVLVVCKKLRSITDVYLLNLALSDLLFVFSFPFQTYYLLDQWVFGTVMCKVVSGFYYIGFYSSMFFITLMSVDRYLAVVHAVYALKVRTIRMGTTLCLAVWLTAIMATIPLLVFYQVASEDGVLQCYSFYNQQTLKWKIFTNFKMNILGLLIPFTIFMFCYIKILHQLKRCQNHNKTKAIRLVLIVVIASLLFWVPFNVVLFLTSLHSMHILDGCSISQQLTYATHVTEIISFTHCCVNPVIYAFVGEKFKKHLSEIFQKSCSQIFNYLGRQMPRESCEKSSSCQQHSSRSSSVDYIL

“MC148R = virokine from Molluscum contagiosum virus subtype 2 (MOCV) (ligand)”: in assay [1], the IC50 antagonism of EC80 Human CCL1 Gα15/16 Biosensor was found to be 33.5 nM and the IC50 antagonism of EC80 Human CCL1 Gαz Biosensor worked out at 13.8 nM.
Take “ADI-26140: Human IgG1 isotype control (antibody)”: in assay [2], the MFI Fold over Background (fold over background) was found to be 2.
Regarding “CTL-33364 = Biolegend human CCR8 control IgG clone L263G8 (antibody)”, in assay [1], the IC50 antagonism of EC80 Human CCL1 Gα15/16 Biosensor is 1.62 nM and the IC50 antagonism of EC80 Human CCL1 Gαz Biosensor stood at 0.798 nM. Further, the MFI Fold over Background (fold over background) in assay [2] worked out at 268.

These data come from patent publication US20250019449A1.
